Columns and labels:
PD-L1 [1] = target: T1, PD-L1 (Homo sapiens, UniProt Q9NZQ7); assay: ITC; MicroCal iTC200, 25 °C, PBS pH 7.4; peptide at 500 μM in the syringe, PD-L1 or HSC70 at 2.5 μM in the sample chamber; 20 injections of 2 μL
Target sequence in this assay (Q9NZQ7 19-290): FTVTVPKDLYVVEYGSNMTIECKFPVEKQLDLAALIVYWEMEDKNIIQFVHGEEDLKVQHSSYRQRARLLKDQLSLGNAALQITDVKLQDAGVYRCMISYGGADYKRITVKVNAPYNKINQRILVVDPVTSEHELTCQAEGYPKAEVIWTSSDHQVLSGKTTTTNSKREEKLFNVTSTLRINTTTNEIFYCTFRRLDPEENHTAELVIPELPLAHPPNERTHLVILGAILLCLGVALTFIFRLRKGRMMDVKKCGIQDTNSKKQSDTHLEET

HSC70 [2] = target: T2, HSC70 (Homo sapiens, UniProt P11142); assay: as above
Target sequence in this assay (P11142 whole entry): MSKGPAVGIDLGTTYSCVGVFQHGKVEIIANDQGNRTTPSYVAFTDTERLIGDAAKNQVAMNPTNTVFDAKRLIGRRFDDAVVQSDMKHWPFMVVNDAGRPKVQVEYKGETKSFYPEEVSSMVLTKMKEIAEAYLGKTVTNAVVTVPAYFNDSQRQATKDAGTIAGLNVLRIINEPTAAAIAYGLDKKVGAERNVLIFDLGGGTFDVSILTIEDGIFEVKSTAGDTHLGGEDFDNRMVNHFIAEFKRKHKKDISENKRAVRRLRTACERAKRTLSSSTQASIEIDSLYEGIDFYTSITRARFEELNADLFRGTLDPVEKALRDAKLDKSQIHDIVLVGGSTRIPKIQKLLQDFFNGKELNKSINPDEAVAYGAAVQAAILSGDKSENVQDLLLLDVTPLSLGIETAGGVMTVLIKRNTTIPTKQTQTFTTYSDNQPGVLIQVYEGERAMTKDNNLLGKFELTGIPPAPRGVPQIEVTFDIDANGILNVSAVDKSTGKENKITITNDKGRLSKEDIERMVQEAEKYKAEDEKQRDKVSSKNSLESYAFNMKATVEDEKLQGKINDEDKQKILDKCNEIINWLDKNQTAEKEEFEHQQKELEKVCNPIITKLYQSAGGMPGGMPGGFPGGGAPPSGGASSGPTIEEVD

PD-L1 [3] = target: T1, PD-L1; assay: Isothermal titration calorimetry (ITC), binding to PD-L1; settings: 25 °C, PBS pH 7.4, peptide 500 μM in syringe, protein 2.5 μM in cell, 20 injections of 2 μL
Protocol: (§1) Experiments were conducted at 25 °C on a MicroCal iTC200 isothermal titration calorimeter (GE Healthcare) in PBS buffer (pH 7.4). The titration syringe was loaded with peptide a or scrambled peptide prepared at 500 μM, while the sample chamber contained PD-L1 or HSC70 protein at 2.5 μM. The titration consisted of 20 successive injections of 2 μL each, with an equilibration interval of 120 seconds between injections. The average baseline value was calculated from data points obtained under saturation conditions. Following baseline correction, binding constants were determined using the fitting models provided in MicroCal Origin software.
Target sequence in this assay (Q9NZQ7 19-290, species assumed): as the sequence (Q9NZQ7 19-290) above

HSC70 [4] = target: T2, HSC70; assay: Isothermal titration calorimetry (ITC), binding to HSC70; settings: 25 °C, PBS pH 7.4, peptide 500 μM in syringe, protein 2.5 μM in cell, 20 injections of 2 μL
Protocol: as §1
Target sequence in this assay (P11142 whole entry, species assumed): as the sequence (P11142 whole entry) above

| Kd (PD-L1 [1]) [nM] | Kd (HSC70 [2]) [nM] | Kd, binding to PD-L1 (PD-L1 [3]) | Kd, binding to HSC70 (HSC70 [4]) | Substance |
| --- | --- | --- | --- | --- |
| 410 | 1280 | – | – | bifunctional peptide a (CKFERQ-PEG3-nyskptdrqyhf) |
| – | – | no detectable binding | no detectable binding | fhyqrdtpksyn-PEG3-QREFKC [mutant peptide with scrambled sequences] |

From publication PMC12605528, “A bifunctional peptide–selenium nanocomposite for lysosomal degradation of PD-L1 and enhanced cancer immunotherapy” (Frontiers in Immunology, 2025)
